B1: GST-PRDM9-A/24-97 (domain or fragment, human, UniProt Q9NQV7 24-97, looked up)
chain: VKDAFKDISIYFTKEEWAEMGDWEKTRYRNVKRNYNALITIGLRATRPAFMCHRRQAIKLQVDDTEDSDEEWTP
B2: GST-ZNF10-AB fusion protein (domain or fragment)
chain: not shown

Molecular target: tripartite motif containing 28 (TRIM28) (human (endogenous in HeLa), UniProt Q13263 1-835)
Assay: cell-based or functional assay

Sequence of tripartite motif containing 28 (TRIM28) (Q13263 whole entry): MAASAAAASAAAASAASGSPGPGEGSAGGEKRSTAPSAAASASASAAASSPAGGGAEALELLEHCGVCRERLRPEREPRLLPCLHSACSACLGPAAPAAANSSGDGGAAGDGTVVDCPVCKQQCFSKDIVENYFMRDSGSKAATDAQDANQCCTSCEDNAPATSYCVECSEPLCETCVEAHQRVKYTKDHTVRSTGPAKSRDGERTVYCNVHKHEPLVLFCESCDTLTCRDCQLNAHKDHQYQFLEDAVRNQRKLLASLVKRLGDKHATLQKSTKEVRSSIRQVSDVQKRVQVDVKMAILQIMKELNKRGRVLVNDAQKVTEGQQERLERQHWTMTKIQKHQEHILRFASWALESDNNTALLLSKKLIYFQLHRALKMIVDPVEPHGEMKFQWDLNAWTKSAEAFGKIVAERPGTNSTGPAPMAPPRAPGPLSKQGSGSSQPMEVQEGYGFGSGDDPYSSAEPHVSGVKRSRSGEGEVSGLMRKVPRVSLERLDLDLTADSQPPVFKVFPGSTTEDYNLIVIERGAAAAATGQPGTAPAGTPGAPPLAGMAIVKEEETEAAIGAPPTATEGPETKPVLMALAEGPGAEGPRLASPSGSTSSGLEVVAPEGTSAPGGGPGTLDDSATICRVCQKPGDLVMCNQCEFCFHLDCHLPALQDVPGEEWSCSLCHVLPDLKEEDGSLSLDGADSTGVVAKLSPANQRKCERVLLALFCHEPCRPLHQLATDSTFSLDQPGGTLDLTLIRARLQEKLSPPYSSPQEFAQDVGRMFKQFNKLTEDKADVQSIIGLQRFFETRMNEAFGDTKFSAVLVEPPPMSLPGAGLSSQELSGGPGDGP

Binder | transcriptional repression factor over Gal4-DBD alone, dual luciferase reporter assay in HeLa cells (KRAB domain as Gal4-DBD fusion) [fold]
B1 | 1.3
B2 | ~19
